Molecular target: PrgH_(11–120), cytoplasmic domain of the inner-membrane ring protein PrgH (Salmonella enterica serovar Typhimurium) (UniProt P41783)
Experiment: crystal structure; PrgH_(11–120) at 5–10 mg/ml, 20°C, 15–20% PEG 6000, 0.02 M CaCl2, 0.1 M HEPES pH 6.5; packing in the asymmetric unit

**Q.** Which stoichiometry N does the source give for “PrgH_(11–120), cytoplasmic domain of the inner-membrane ring protein PrgH (from UniProt P41783 11-120) (domain or fragment)” here?
**A.** 6

— publication PMC3635987
